Laboratory results from doi:10.1101/085266.

Tests used:
[1] = molecular target: Bacillaceae bacterium MTCC 10057 encapsulin capsid protein (Bacillaceae bacterium MTCC 10057); assay: co-purification with encapsulin capsids
[2] = molecular target: Bacillaceae bacterium MTCC 10057 Geobac cargo protein with C-terminal His6 tag (Bacillaceae bacterium MTCC 10057); assay: SEC
[3] = molecular target: Kuenenia stuttgartiensis encapsulin without the N-terminal cytochrome domain (Kuenenia stuttgartiensis) (UniProt Q1Q6L7); assay: co-purification with encapsulin capsids
[4] = molecular target: Streptomyces sp. AA4 encapsulin capsid protein (Streptomyces sp. AA4); assay: co-purification with encapsulin capsids
[5] = molecular target: Streptomyces sp. AA4 hemerythrin cargo with C-terminal His6 tag (Streptomyces sp. AA4); assay: SEC

In the case of “Bacillaceae bacterium MTCC 10057 Ferredoxin cargo (Fer), with N-terminal targeting peptide (natural protein)”, the molecules of cargo per 180 subunit capsid (molecules per 180 subunit capsid) [1] is reported as 10.

“Bacillaceae bacterium MTCC 10057 Geobac cargo protein with C-terminal His6 tag (natural protein)” showed a stoichiometry N [2] of 2.

For “Bacillaceae bacterium MTCC 10057 Geobac cargo protein, with C-terminal targeting peptide (natural protein)”, the molecules of cargo per 180 subunit capsid (molecules per 180 subunit capsid) [1] was 150.

Substance “NIR domain (N-terminal cupredoxin domain) of the Kuenenia stuttgartiensis NIR-HAO fusion protein (domain or fragment)” has a copies of cargo per 180mer capsid (copies per 180mer capsid) [3] of 15.

In the case of “Streptomyces sp. AA4 hemerythrin cargo (Heme), with C-terminal targeting peptide (natural protein)”, the molecules of cargo per 60 subunit capsid (molecules per 60 subunit capsid) [4] is reported as 20.

“Streptomyces sp. AA4 hemerythrin cargo with C-terminal His6 tag (natural protein)” was tested, and the stoichiometry N [5] was 2.
